Laboratory results: PMC11820115

Molecular target: GFP1-10 tagged with MCP, with nuclear localization sequences
Experiment: P3 editing (protein-protein proximity joins crRNA-MS2 and BoxB-petracrRNA; prime editing read by amplicon sequencing); HEK293T cells; 12 designs of crRNA-MS2/BoxB-petracrRNA that vary the upper 4 bp of the Cas9-binding region of the repeat:anti-repeat duplex; tagged split-GFP against standard untagged GFP as background; normalized to the eCTT control

- normalized editing efficiency (GAUA:UAUC design): 3.8%
Substance: GFP11 tagged with LambdaN, with nuclear localization sequences (peptide)
